Article PMC7467306

Experiments:
[1] = biological target: human insulin receptor isoform A (human) (UniProt P06213); assay: radioligand binding; competition with [125I]-monoiodotyrosyl-TyrA14-insulin on intact human IM-9 lymphocytes (human IR-A)
[2] = biological target: human IGF-1 receptor (human) (UniProt P08069); assay: radioligand binding; competition with [125I]-monoiodotyrosyl-IGF1 on intact mouse fibroblasts transfected with human IGF-1R and with deleted mouse IGF-1R
[3] = biological target: His-tagged domain 11 (D11) of human IGF2R (human) (UniProt P11717); assay: radioligand binding; competition of unlabeled ligand (10^-12-10^-6 M) with [125I]-monoiodotyrosyl-Tyr2-IGF2 (43000 cpm, 0.02 nM) for D11 held in wells on iBodies; 16 h at 5 °C, HEPES binding buffer pH 7.6 with 1 % BSA; one-site fit with ligand depletion, Kd of the tracer set to 2 nM
Chain of UniProt P11717 (P11717 1508-1651): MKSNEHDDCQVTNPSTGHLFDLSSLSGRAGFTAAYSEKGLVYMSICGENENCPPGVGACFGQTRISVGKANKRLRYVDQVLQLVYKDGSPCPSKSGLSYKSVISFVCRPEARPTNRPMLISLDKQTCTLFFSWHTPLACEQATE

Chain of UniProt P06213 (P06213 other isoform, or with tags, fused parts or gaps): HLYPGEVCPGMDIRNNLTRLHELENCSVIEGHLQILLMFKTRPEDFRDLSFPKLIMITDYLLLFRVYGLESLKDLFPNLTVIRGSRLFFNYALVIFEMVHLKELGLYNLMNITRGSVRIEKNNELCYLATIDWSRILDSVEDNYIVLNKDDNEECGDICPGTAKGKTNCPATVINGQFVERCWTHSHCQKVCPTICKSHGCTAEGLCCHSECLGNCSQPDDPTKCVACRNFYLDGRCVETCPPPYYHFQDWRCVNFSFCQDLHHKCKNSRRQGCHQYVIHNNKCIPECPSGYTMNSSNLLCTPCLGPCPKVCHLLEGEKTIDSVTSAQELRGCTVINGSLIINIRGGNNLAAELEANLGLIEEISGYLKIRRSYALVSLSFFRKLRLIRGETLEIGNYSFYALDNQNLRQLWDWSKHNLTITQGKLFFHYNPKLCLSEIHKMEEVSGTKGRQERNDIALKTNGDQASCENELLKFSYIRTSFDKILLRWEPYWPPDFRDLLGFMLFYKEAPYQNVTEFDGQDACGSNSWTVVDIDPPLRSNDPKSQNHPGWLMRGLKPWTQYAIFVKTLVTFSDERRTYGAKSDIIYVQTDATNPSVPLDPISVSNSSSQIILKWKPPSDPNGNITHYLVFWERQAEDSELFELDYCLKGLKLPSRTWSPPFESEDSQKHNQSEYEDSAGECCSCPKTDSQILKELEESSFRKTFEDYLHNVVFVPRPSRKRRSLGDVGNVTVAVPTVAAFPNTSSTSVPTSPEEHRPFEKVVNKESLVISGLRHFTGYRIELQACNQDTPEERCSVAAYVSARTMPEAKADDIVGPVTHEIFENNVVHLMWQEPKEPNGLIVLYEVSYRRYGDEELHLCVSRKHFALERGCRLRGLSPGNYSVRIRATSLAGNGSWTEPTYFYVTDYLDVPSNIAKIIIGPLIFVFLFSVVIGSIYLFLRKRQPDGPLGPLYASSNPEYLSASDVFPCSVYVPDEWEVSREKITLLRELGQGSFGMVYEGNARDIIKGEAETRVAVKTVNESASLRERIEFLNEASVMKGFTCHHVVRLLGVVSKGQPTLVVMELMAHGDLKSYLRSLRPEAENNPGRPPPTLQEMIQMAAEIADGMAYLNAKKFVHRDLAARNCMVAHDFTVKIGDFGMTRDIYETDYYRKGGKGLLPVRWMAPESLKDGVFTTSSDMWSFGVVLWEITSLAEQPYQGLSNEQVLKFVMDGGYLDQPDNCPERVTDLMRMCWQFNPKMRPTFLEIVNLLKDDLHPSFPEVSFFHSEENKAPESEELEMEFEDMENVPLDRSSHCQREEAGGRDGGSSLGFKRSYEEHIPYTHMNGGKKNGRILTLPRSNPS

- Kd [1]: 7.3 nM
- Kd [2]: 1.1 nM
- Kd [3]: 0.28 nM
Substance: Leu19-IGF2 analog (ligand)
